Measurements as given in the domain aggregation screens of Martell et al. (2025).

test: soluble fraction after stress (log2 fold change); higher = more stays soluble; pooled small domains, quantitative proteomics; conditions: stress: 75 degC
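Also: 20 min heating vs room temperature control held 20 min.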

Q: With “HMRENAARNRNVNLDIGETLRVDAWSPERRARVQYRGAAWDVELAPNAPATVGEFRIVEVRGNVLVVTP” as the sequence, how does the “soluble fraction (log2)” value read?
A: -0.604

Q: Which “soluble fraction (log2)” value does the source give for “HMREPIPVPSRPIRAGDLVEIPGTNRPAEVTAVKGDRLVLKAGVLSMTVKNDEVRLIEDDERAAM” here?
A: 0.505

Q: Which “soluble fraction (log2)” value does the source give for “HMREQAHEVAGKLGYPVMVKASAGGGGKGIRIVRTEDELDQAFEAAQSETKAAFGDDQMYMEKVI” here?
A: -0.0878

Q: Which “soluble fraction (log2)” value does the source give for “HMRESDQSTVELSLERTIQEALMVNPRTSSVEEFSFEWGTGRVKVSFIVYSVDGEPFTVDSIIE” here?
A: -2.45

Q: Which “soluble fraction (log2)” value does the source give for “HMREVEAPRDLLAALGERPGALDAWKALSFTHQREYVEAIEDARKPETRERRIANAVKMVAERS” here?
A: 0.386

Q: For “HMREVPHGEYEVKIEKLELVESKAGDPMVTVWFKVLAGDYKGSMIFMNQVITKGFQIHIMNEFLR”, which “soluble fraction (log2)” value is on record?
A: -0.308

Q: Which “soluble fraction (log2)” value does the source give for “HMREYEKAVDYVRRMISSGSLNVGDRLPTERELSLELDISRNSTREAMRMLENMGIIVSRHGSGNYISGN” here?
A: -0.682

Q: Which “soluble fraction (log2)” value does the source give for “HMRFDADELQKAYDLFDADENTPFKTIKQAYYALARRHHPDKNGDQEYFKVINNAFQLIQEHRRRRDN” here?
A: -0.437

Q: With “HMRFGNHHVYRTLMVLSDQKRKGRKQIADAVGIGEGSMRTIIEYLRGLDMIDIRQTGVKITRHGNAFL” as the sequence, how does the “soluble fraction (log2)” value read?
A: -0.115

Q: With “HMRGAARRDRAVGERAVSKDTILDATRALLRKGSALEIRAIDIAEESGLSRQTVFQYYPVIRLIFFELSD” as the sequence, how does the “soluble fraction (log2)” value read?
A: -0.00574

Q: For “HMRGETSYANDIIKRLKQANLIVVEGTLYPLLNRLKKDGLLHYEWRESQQGPPRKYYGLTEEGEA”, which “soluble fraction (log2)” value is on record?
A: -0.273

Q: With “HMRGFGEVGQLPSGRYRARYTGPDGGRHSAPITFVARIDAEGWLVDQERMISRGEWEPPARQ” as the sequence, how does the “soluble fraction (log2)” value read?
A: -0.238

Q: Which “soluble fraction (log2)” value does the source give for “HMRGFGYVRRLPSKRYQASYAGPDLQRHVAPTTFTTKADAESWLGAERKVVESGSWRPPAVREAEARLS” here?
A: 0.462

Q: For “HMRGLIEPLSQRELEVLMLMARGQSNAHIADQLNISENTIKWHGRNIFGKLGVSNRTEAVITSQEMGMLAT”, which “soluble fraction (log2)” value is on record?
A: -0.727

Q: For “HMRGRFGNAAPARNLGDHPQGGAINVKAGRYGPYVSWGKVNATLPKDSDPEKVTLEEAVALIAAKQSGQG”, which “soluble fraction (log2)” value is on record?
A: -0.111

Q: Which “soluble fraction (log2)” value does the source give for “HMRGVDRPLTLPRHWRRNAGRLVKVTLANGSAVTGRVLDPGEERVTLEVSGERHEVAYADVKKALVQVEF” here?
A: -2.07

Q: Which “soluble fraction (log2)” value does the source give for “HMRHLSVPNRQVEGALDHIRSQGWLAEGMRVFASEDGSARLIPLGPGAPLEMLEPLAKFDVISHEGKPY” here?
A: -0.149

Q: With “HMRHSLAAALTELRRLAALDLGDFFRFEYVSHTDSLGGKQQAYTEGIRVSFGVYLGVNKKDRLNVDPVV” as the sequence, how does the “soluble fraction (log2)” value read?
A: -3.42

Q: For “HMRHTRQRQAVLDALVRSGQALSPQDLLGQAKSAVPSLNLSTVYRQIKGLQDAGQIVRVELPGQPPRFEM”, which “soluble fraction (log2)” value is on record?
A: -0.0693

Q: For “HMRIAQYRQIENDLLEQINLGYYKKGDLIPTELELSATYHVSRVTVRKATDNLVAKGILQRVAGVGTFVSR”, which “soluble fraction (log2)” value is on record?
A: -3.14

Q: For “HMRIATVTPIEEDQASDRVVAVYNDIKSTKQIDFIPNFWKVIAVNPDLLEQVWGQLKTLMHPEEVG”, which “soluble fraction (log2)” value is on record?
A: -0.996

Q: With “HMRIEDTMDYINKIKEKLKNNGGVITSKEFTRSNIPTIYLTRMVETGELIRIDRGIYINSSG” as the sequence, how does the “soluble fraction (log2)” value read?
A: -0.781

Q: For “HMRIEYYDDEELDRYIGTPASGYREAAVEEFREILLTLDADDVPGWVRSLQLRGIEFPESLRPELYL”, which “soluble fraction (log2)” value is on record?
A: -0.568

Q: Which “soluble fraction (log2)” value does the source give for “HMRIFDDNMIFPTEAEISAALKRLVMDLPKVGFLQGHGERAVDNVGERAYSMFTHANNFRYALINQGFVT” here?
A: -0.029

Q: With “HMRIHKQLGDRIRNLRLSSGMNQEELAFKSGISAAHLGQIERGLKSPTISTIQKIAKALNVTLPILF” as the sequence, how does the “soluble fraction (log2)” value read?
A: -0.631

Q: With “HMRININNASARQIADALPGVGLKTARDIKDFQTTLSGERYTRLDQLHSIKRVDWDEIFKADLVRV” as the sequence, how does the “soluble fraction (log2)” value read?
A: -0.0802

Q: With “HMRISMRDQVYEIIKNRILSREYSLGEPINIVHLSKELGISNTPIREALSQLETERLITINSNQKYHVT” as the sequence, how does the “soluble fraction (log2)” value read?
A: -0.0513

Q: With “HMRKDEFLQTLRRALNGNVPPRVVEENVRYYDGYISDEVRKGRSEEEVIEEIGDPRLIARTIEDTT” as the sequence, how does the “soluble fraction (log2)” value read?
A: 0.105

Q: For “HMRKDRKVLMERGRHIFNDLLEKEGIVATNQLMTKLLASHHLRNRDELYLMLANDDISLSSKEIKDLS”, which “soluble fraction (log2)” value is on record?
A: -0.409

Q: For “HMRKEDYLPIGSVINMDDRKFRVDSVDFDKDKVSLQDMALADARMPIFWEEPLTVVRELYEQQDE”, which “soluble fraction (log2)” value is on record?
A: 0.135

Q: With “HMRKEPSYASDIITRLKEADLIVVEGTLYPLLTRLKKDGLLSYEWRESTQGPPRKYYALTLDGET” as the sequence, how does the “soluble fraction (log2)” value read?
A: -0.47

Q: For “HMRKIGDVLRLHAGGLSKRRIAVSLNIGRTAVGDYISRARRAGLGWPLPEDLSEEALERLLFPPP”, which “soluble fraction (log2)” value is on record?
A: -3.08

Q: For “HMRKIVEGVLTKKEGKWYLLTDIETYKISDASAEYHKAELNDRASALIPAQNPKVPFASLEKVFN”, which “soluble fraction (log2)” value is on record?
A: -1.01

Q: With “HMRKLHFVMSEIYEDHPWIGSKLQDVFLPKDIRVVLVERDSKQFMPNGQTLFELGDRLTLSALHYDPA” as the sequence, how does the “soluble fraction (log2)” value read?
A: -2.8

Q: For “HMRKLTDRQRQILDLIKTIIAETGAPPTRAEISTALGFKSANAAQEHLQALAQKGMIDLVSGASRGIRLRG”, which “soluble fraction (log2)” value is on record?
A: -0.99

Q: With “HMRKMELTEAAEKLIEEPDVVSAYRNMQQIFQQWREIGPVPREQRDEVWSHFKDLMTQVNRRHQAHFEN” as the sequence, how does the “soluble fraction (log2)” value read?
A: 0.113

Q: With “HMRKPLDQSWVPDDDAMKILTNSGIEKEFIKNEIPEFILYWSDKGEISDSWNTKFISQIRRQWAKNQ” as the sequence, how does the “soluble fraction (log2)” value read?
A: -0.0241

Q: For “HMRKSAVSSTLTSIEGIGATRAKALLKHFKTVAAVSEADLKELEDAPGMTRPSALRVYEYFHGK”, which “soluble fraction (log2)” value is on record?
A: -0.342

Q: With “HMRKSLGEIVFDRMERAIKSGAYSPDERLPTELDLAAEFEVSRPVIRDALKRLRERGLIYSRQGAGSFVRA” as the sequence, how does the “soluble fraction (log2)” value read?
A: -0.813

Q: With “HMRKTIQDFLSSNKVDIAKLLTLALEKTKEDLYKNLSYNLTNKELEKLKLLIKKREQGIPFAYLS” as the sequence, how does the “soluble fraction (log2)” value read?
A: -0.348

Q: Which “soluble fraction (log2)” value does the source give for “HMRLADHVVEKLLALVQERGLQPGQKLPAERQLAEVLGVSRTSVREAIQKLVSQGVLSARRGDGTYVQS” here?
A: -0.302

Q: Which “soluble fraction (log2)” value does the source give for “HMRLANGIGTVYKLSGNRRNPYIVRKTTGWEIDEESGKAKQKYITIGYAPTRAKGLEMLMDYNKNP” here?
A: -0.895

Q: Which “soluble fraction (log2)” value does the source give for “HMRLDHIFSVVERLKGVSLGAGDRLEVQKYEDLLTVYKSKNALSSEEAQTLNDILASLLKMMAKYD” here?
A: -1.05

Q: For “HMRLDSELVSARLHRFMGTNRKPDGEIVEKIAAILEGHPIETLDAFLQSLNGRKIKSYGFFPTVLRREIAN”, which “soluble fraction (log2)” value is on record?
A: -0.319

Q: For “HMRLEEVSVPQRLLAAIAEEREVQIGIVDGRGGTRVLRVEPLALEGGRLRARDVESGEEFTVLIHRVLL”, which “soluble fraction (log2)” value is on record?
A: -1.19

Q: For “HMRLLAESIARGLDPEGSGGLWAKEAGAEALKLMETLAAEAPHGGSFTAAAYRDLFESLVHQGEVREA”, which “soluble fraction (log2)” value is on record?
A: -0.00417

Q: With “HMRLLGEPLAGRLKKDVPVVTGRSTESKAIAQFFELRWSHLPDPEARTISVASGRIDFMDVGATRFSLR” as the sequence, how does the “soluble fraction (log2)” value read?
A: 0.0725

Q: For “HMRLSDSEFESIENAIKEKLENSALTADVLVKELSFDEDKIWKVIRWLEDAEKISEDEAGTLLWKPR”, which “soluble fraction (log2)” value is on record?
A: -0.0971

Q: Which “soluble fraction (log2)” value does the source give for “HMRLSESLLDDIPGIGAARKRALLQSFGSVRKLRHADAEEIAAKVPGIGLNFAEKIVEALRKK” here?
A: 0.391

Q: Which “soluble fraction (log2)” value does the source give for “HMRLTTTPKTARGLTTMNRIIRAAEVEFGRKGYHYTGITDIAQRAKVASGTIYLYFTDKYSLYVHLLT” here?
A: 0.159

Q: Which “soluble fraction (log2)” value does the source give for “HMRLYTQDVAVLNRDVIQGEVITSDMVTTVNVHKRTVPTGALNLSEIPGNVAKFNIPASIPITASMVTK” here?
A: -0.0186

Q: For “HMRMLLKELLIQYEVKNDKSHVEVAKEVGVSLSTYYRWLNGESLHLKKRTIDRLSEVLHYDINQVVEES”, which “soluble fraction (log2)” value is on record?
A: -2.52

Q: Which “soluble fraction (log2)” value does the source give for “HMRMLSEGAQRMLRGLAVLEEASADRLLELHQGDYPGFVRSLFALESAGLFQRNGSGTWIRR” here?
A: -0.91

Q: With “HMRMNASERQNQIVDLLSQNGVMKIMDIADHFNVSRETIRRDLIILEDDNRIKKWFGGVISAN” as the sequence, how does the “soluble fraction (log2)” value read?
A: -0.706

Q: For “HMRMQRYYLTDMSEKGREALPGVLDEMGYAGRYTMSDNSIAINSNMIVLSKAIKRAEDIAHNE”, which “soluble fraction (log2)” value is on record?
A: -0.089
